B1: target 1 insG 3' of 14,insC 3' of 3 (mixed)
RNA 1: CACCCGUGCAAAAAUGCAGGGGUCUAAAACUGAGCGGAUAACCUCUCUAUGG
RNA 2: GGGAAUGGAUCCACAUCUACGAAUUCGUACCAUAGAGAGGGUUAUCCGCUCCACCGAGAUCGGAAGAGCACACGU
B2: target 1 U10C,A14G (mixed)
RNA 1: CACCCGUGCAAAAAUGCAGGGGUCUAAAACUGAGCGGAUAACCUCUCUAUGG
RNA 2: GGGAAUGGAUCCACAUCUACGAAUUCGUACCAUAGAGGGGUCAUCCGCUCACCGAGAUCGGAAGAGCACACGU
B3: target 2 MT 5'PFS UAU 3'PFS GAU (mixed)
RNA 1: CACCCGUGCAAAAUUGCAGGGGUCUAAAACCUUCUCCAAAUUGUUUCAUCCU
RNA 2: GGGAAUGGAUCCACAUCUACGAAUUCUAUAGGAUGAAACAAUUUGGAGAAGGAUAGAUCGGAAGAGCACACGU
B4: target 2 MT 5'PFS UAG 3'PFS CAA (mixed)
RNA 1: CACCCGUGCAAAAUUGCAGGGGUCUAAAACCUUCUCCAAAUUGUUUCAUCCU
RNA 2: GGGAAUGGAUCCACAUCUACGAAUUCUAGAGGAUGAAACAAUUUGGAGAAGCAAAGAUCGGAAGAGCACACGU
B5: target 2 MT 5'PFS UCA 3'PFS ACC (mixed)
RNA 1: CACCCGUGCAAAAUUGCAGGGGUCUAAAACCUUCUCCAAAUUGUUUCAUCCU
RNA 2: GGGAAUGGAUCCACAUCUACGAAUUCUCAAGGAUGAAACAAUUUGGAGAAGACCAGAUCGGAAGAGCACACGU
B6: target 2 MT 5'PFS GAA 3'PFS CUA (mixed)
RNA 1: CACCCGUGCAAAAUUGCAGGGGUCUAAAACCUUCUCCAAAUUGUUUCAUCCU
RNA 2: GGGAAUGGAUCCACAUCUACGAAUUCGAAAGGAUGAAACAAUUUGGAGAAGCUAAGAUCGGAAGAGCACACGU
B7: target 2 MT 5'PFS UGU 3'PFS CUC (mixed)
RNA 1: CACCCGUGCAAAAUUGCAGGGGUCUAAAACCUUCUCCAAAUUGUUUCAUCCU
RNA 2: GGGAAUGGAUCCACAUCUACGAAUUCUGUAGGAUGAAACAAUUUGGAGAAGCUCAGAUCGGAAGAGCACACGU
B8: target 2 MT 5'PFS UGU 3'PFS CUA (mixed)
RNA 1: CACCCGUGCAAAAUUGCAGGGGUCUAAAACCUUCUCCAAAUUGUUUCAUCCU
RNA 2: GGGAAUGGAUCCACAUCUACGAAUUCUGUAGGAUGAAACAAUUUGGAGAAGCUAAGAUCGGAAGAGCACACGU
B9: target 2 MT 5'PFS UCU 3'PFS UUG (mixed)
RNA 1: CACCCGUGCAAAAUUGCAGGGGUCUAAAACCUUCUCCAAAUUGUUUCAUCCU
RNA 2: GGGAAUGGAUCCACAUCUACGAAUUCUCUAGGAUGAAACAAUUUGGAGAAGUUGAGAUCGGAAGAGCACACGU
B10: target 2 MT 5'PFS ACC 3'PFS CAU (mixed)
RNA 1: CACCCGUGCAAAAUUGCAGGGGUCUAAAACCUUCUCCAAAUUGUUUCAUCCU
RNA 2: GGGAAUGGAUCCACAUCUACGAAUUCACCAGGAUGAAACAAUUUGGAGAAGCAUAGAUCGGAAGAGCACACGU
B11: target 2 MT 5'PFS CUG 3'PFS CUG (mixed)
RNA 1: CACCCGUGCAAAAUUGCAGGGGUCUAAAACCUUCUCCAAAUUGUUUCAUCCU
RNA 2: GGGAAUGGAUCCACAUCUACGAAUUCCUGAGGAUGAAACAAUUUGGAGAAGCUGAGAUCGGAAGAGCACACGU
B12: target 2 MT 5'PFS AAC 3'PFS UUU (mixed)
RNA 1: CACCCGUGCAAAAUUGCAGGGGUCUAAAACCUUCUCCAAAUUGUUUCAUCCU
RNA 2: GGGAAUGGAUCCACAUCUACGAAUUCAACAGGAUGAAACAAUUUGGAGAAGUUUAGAUCGGAAGAGCACACGU
B13: target 2 MT 5'PFS UCA 3'PFS CAA (mixed)
RNA 1: CACCCGUGCAAAAUUGCAGGGGUCUAAAACCUUCUCCAAAUUGUUUCAUCCU
RNA 2: GGGAAUGGAUCCACAUCUACGAAUUCUCAAGGAUGAAACAAUUUGGAGAAGCAAAGAUCGGAAGAGCACACGU
B14: target 2 MT 5'PFS UCA 3'PFS ACG (mixed)
RNA 1: CACCCGUGCAAAAUUGCAGGGGUCUAAAACCUUCUCCAAAUUGUUUCAUCCU
RNA 2: GGGAAUGGAUCCACAUCUACGAAUUCUCAAGGAUGAAACAAUUUGGAGAAGACGAGAUCGGAAGAGCACACGU
B15: target 2 MT 5'PFS UCA 3'PFS ACU (mixed)
RNA 1: CACCCGUGCAAAAUUGCAGGGGUCUAAAACCUUCUCCAAAUUGUUUCAUCCU
RNA 2: GGGAAUGGAUCCACAUCUACGAAUUCUCAAGGAUGAAACAAUUUGGAGAAGACUAGAUCGGAAGAGCACACGU
B16: target 2 MT 5'PFS GAA 3'PFS CUC (mixed)
RNA 1: CACCCGUGCAAAAUUGCAGGGGUCUAAAACCUUCUCCAAAUUGUUUCAUCCU
RNA 2: GGGAAUGGAUCCACAUCUACGAAUUCGAAAGGAUGAAACAAUUUGGAGAAGCUCAGAUCGGAAGAGCACACGU
B17: target 2 MT 5'PFS AUU 3'PFS UAC (mixed)
RNA 1: CACCCGUGCAAAAUUGCAGGGGUCUAAAACCUUCUCCAAAUUGUUUCAUCCU
RNA 2: GGGAAUGGAUCCACAUCUACGAAUUCAUUAGGAUGAAACAAUUUGGAGAAGUACAGAUCGGAAGAGCACACGU
B18: target 2 MT 5'PFS GAA 3'PFS CUU (mixed)
RNA 1: CACCCGUGCAAAAUUGCAGGGGUCUAAAACCUUCUCCAAAUUGUUUCAUCCU
RNA 2: GGGAAUGGAUCCACAUCUACGAAUUCGAAAGGAUGAAACAAUUUGGAGAAGCUUAGAUCGGAAGAGCACACGU
B19: target 2 MT 5'PFS CUG 3'PFS CUU (mixed)
RNA 1: CACCCGUGCAAAAUUGCAGGGGUCUAAAACCUUCUCCAAAUUGUUUCAUCCU
RNA 2: GGGAAUGGAUCCACAUCUACGAAUUCCUGAGGAUGAAACAAUUUGGAGAAGCUUAGAUCGGAAGAGCACACGU
B20: target 2 MT 5'PFS CUG 3'PFS CUC (mixed)
RNA 1: CACCCGUGCAAAAUUGCAGGGGUCUAAAACCUUCUCCAAAUUGUUUCAUCCU
RNA 2: GGGAAUGGAUCCACAUCUACGAAUUCCUGAGGAUGAAACAAUUUGGAGAAGCUCAGAUCGGAAGAGCACACGU
B21: target 2 MT 5'PFS CUG 3'PFS CUA (mixed)
RNA 1: CACCCGUGCAAAAUUGCAGGGGUCUAAAACCUUCUCCAAAUUGUUUCAUCCU
RNA 2: GGGAAUGGAUCCACAUCUACGAAUUCCUGAGGAUGAAACAAUUUGGAGAAGCUAAGAUCGGAAGAGCACACGU
B22: target 2 MT 5'PFS UGU 3'PFS CUU (mixed)
RNA 1: CACCCGUGCAAAAUUGCAGGGGUCUAAAACCUUCUCCAAAUUGUUUCAUCCU
RNA 2: GGGAAUGGAUCCACAUCUACGAAUUCUGUAGGAUGAAACAAUUUGGAGAAGCUUAGAUCGGAAGAGCACACGU
B23: target 2 MT 5'PFS GCA 3'PFS UCA (mixed)
RNA 1: CACCCGUGCAAAAUUGCAGGGGUCUAAAACCUUCUCCAAAUUGUUUCAUCCU
RNA 2: GGGAAUGGAUCCACAUCUACGAAUUCGCAAGGAUGAAACAAUUUGGAGAAGUCAAGAUCGGAAGAGCACACGU
B24: target 2 MT 5'PFS GCG 3'PFS AUU (mixed)
RNA 1: CACCCGUGCAAAAUUGCAGGGGUCUAAAACCUUCUCCAAAUUGUUUCAUCCU
RNA 2: GGGAAUGGAUCCACAUCUACGAAUUCGCGAGGAUGAAACAAUUUGGAGAAGAUUAGAUCGGAAGAGCACACGU
B25: target 2 MT 5'PFS GAA 3'PFS CUG (mixed)
RNA 1: CACCCGUGCAAAAUUGCAGGGGUCUAAAACCUUCUCCAAAUUGUUUCAUCCU
RNA 2: GGGAAUGGAUCCACAUCUACGAAUUCGAAAGGAUGAAACAAUUUGGAGAAGCUGAGAUCGGAAGAGCACACGU
B26: target 2 MT 5'PFS UCA 3'PFS ACA (mixed)
RNA 1: CACCCGUGCAAAAUUGCAGGGGUCUAAAACCUUCUCCAAAUUGUUUCAUCCU
RNA 2: GGGAAUGGAUCCACAUCUACGAAUUCUCAAGGAUGAAACAAUUUGGAGAAGACAAGAUCGGAAGAGCACACGU
B27: target 2 MT 5'PFS UCA 3'PFS CAG (mixed)
RNA 1: CACCCGUGCAAAAUUGCAGGGGUCUAAAACCUUCUCCAAAUUGUUUCAUCCU
RNA 2: GGGAAUGGAUCCACAUCUACGAAUUCUCAAGGAUGAAACAAUUUGGAGAAGCAGAGAUCGGAAGAGCACACGU

The data set concerns the target T1, EsCas13d, nuclease-dead (Eubacterium siraeum, UniProt B0MS50, R295A;H300A;R849A;H854A).
T1 sequence: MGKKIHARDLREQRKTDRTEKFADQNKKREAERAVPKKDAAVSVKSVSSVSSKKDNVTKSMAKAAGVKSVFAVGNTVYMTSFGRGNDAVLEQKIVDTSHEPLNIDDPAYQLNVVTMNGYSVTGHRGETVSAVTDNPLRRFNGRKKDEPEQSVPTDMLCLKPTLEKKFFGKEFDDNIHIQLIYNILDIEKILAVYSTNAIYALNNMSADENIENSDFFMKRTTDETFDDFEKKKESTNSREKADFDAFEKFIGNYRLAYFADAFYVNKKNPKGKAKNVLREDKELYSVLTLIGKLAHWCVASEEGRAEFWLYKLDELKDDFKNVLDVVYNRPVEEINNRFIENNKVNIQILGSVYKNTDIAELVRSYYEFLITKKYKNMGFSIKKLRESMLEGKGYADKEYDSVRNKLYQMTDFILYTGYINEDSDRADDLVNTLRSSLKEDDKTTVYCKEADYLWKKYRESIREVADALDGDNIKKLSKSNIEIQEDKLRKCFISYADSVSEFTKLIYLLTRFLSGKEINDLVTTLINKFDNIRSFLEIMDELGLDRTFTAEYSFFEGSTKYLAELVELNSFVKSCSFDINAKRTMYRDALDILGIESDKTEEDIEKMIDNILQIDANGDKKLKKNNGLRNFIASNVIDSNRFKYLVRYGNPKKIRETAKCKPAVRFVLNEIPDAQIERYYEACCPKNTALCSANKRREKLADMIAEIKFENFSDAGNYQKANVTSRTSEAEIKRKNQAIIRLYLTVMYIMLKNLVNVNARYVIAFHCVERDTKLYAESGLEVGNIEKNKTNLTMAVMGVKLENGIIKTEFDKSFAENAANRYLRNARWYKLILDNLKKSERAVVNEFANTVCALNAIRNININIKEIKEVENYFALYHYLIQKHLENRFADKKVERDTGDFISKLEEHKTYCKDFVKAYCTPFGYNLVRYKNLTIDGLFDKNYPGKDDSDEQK
The experiment in a line: crRNA (strand 1, pre-loaded); Mg2+; 40 mM Tris-HCl pH 7.5, 150 mM NaCl, 6 mM MgCl2, 1 mM DTT, 0.1% Tween-20, 0.2 mg/ml BSA; 25 C; 10 min per concentration, then washed. As to conditions: tags: His6-TwinStrep-SUMO cleaved; N-terminal SNAP kept (SNAP-Surface 488); label: 3' end held by stalled T7 RNA polymerase.
In turn, B1 gave a Kd of 10.5 ± 0.9 nM.
For the molecule B2, the Kd turned out to be 34.1 ± 2.8 nM.
On to B3, for which the Kd was about 44 nM.
Then B4, with 1.92 ± 0.26 nM; and B5, with 13.6 ± 3.1 nM.
For B6, the Kd is 6.9 ± 1.1 nM.
With B7, the Kd is about 50 nM.
B8 had a Kd of 12.9 ± 2 nM.
As to B9, the Kd was determined as 16.9 ± 2.8 nM.
In the case of B10 it was 10 ± 4 nM; in that of B11, 2.67 ± 0.23 nM; in that of B12, 7.1 ± 1.3 nM.
In the case of B13 it was 5.3 ± 1.2 nM; in that of B14, 3.6 ± 0.6 nM.
B15: binding was characterised by a dissociation constant (Kd) of 7 ± 1.4 nM. This Kd is about 1.9-fold higher than that of the molecule before.
Consider B16, for which the Kd was 16 ± 4 nM.
As for B17, the Kd stood at 11.9 ± 2.2 nM.
In the case of B18 it was 15.1 ± 2.7 nM; in that of B19, 3.55 ± 0.34 nM; in that of B20, 5.7 ± 0.6 nM.
Then B21, with 3.2 ± 0.4 nM; and B22, with 14.6 ± 2 nM.
Then B23, with 10.9 ± 2.1 nM; and B24, with 12.6 ± 2 nM.
Molecule B25 returned a Kd of 11.2 ± 1.4 nM.
Turning to B26, the Kd came out at 3.6 ± 0.5 nM.
In the case of B27 it was 3.1 ± 0.4 nM.

A word on the Kd: it is the concentration at which binding is half-saturated. A high value points to lower affinity.
